Biological target: KRAS-G12V8-16 peptide (…) presented by HLA-A11 (human)
Test: cell-based or functional assay

percent of TCR 11N4A-transduced T cells responding (CD137) to peptide: > 80%
B1: TCR 11N4A (TCR)
TCR alpha: QQKNDDQQVKQNSPSLSVQEGRISILNCDYTNSMFDYFLWYKKYPAEGPTFLISISSIKDKNEDGRFTVFLNKSAKHLSLHIVPSQPGDSAVYFCAASGVSGNTPLVFGKGTRLSVIANIQNPDPAVYQLRDSKSSDKSVCLFTDFDSQTNVSQSKDSDVYITDKCVLDMRSMDFKSNSAVAWSNKSDFACANAFNNSIIPEDTFFPSPESSCDVKLVEKSFETDTNLNFQNLSVIGFRILLLKVAGFNLLMTLRLWSS
TCR beta: GVTQTPRYLIKTRGQQVTLSCSPISGHRSVSWYQQTPGQGLQFLFEYFSETQRNKGNFPGRFSGRQFSNSRSEMNVSTLELGDSALYLCASSVGTVEQYFGPGTRLTVTEDLKNVFPPEVAVFEPSEAEISHTQKATLVCLATGFYPDHVELSWWVNGKEVHSGVCTDPQPLKEQPALNDSRYCLSSRLRVSATFWQNPRNHFRCQVQFYGLSENDEWTQDRAKPVTQIVSAEAWGRADCGFTSESYQQGVLSATILYEILLGKATLYAVLVSALVLMAMVKRKDSRG

— US20250152717A1
